Experimental findings from PMC12618267, “GAGA zinc finger transcription factor searches chromatin by 1D–3D facilitated diffusion” are described below.

Data set [1] deals with T1, HA-GAF-FL (Drosophila melanogaster), Q08605-2.
T1 sequence: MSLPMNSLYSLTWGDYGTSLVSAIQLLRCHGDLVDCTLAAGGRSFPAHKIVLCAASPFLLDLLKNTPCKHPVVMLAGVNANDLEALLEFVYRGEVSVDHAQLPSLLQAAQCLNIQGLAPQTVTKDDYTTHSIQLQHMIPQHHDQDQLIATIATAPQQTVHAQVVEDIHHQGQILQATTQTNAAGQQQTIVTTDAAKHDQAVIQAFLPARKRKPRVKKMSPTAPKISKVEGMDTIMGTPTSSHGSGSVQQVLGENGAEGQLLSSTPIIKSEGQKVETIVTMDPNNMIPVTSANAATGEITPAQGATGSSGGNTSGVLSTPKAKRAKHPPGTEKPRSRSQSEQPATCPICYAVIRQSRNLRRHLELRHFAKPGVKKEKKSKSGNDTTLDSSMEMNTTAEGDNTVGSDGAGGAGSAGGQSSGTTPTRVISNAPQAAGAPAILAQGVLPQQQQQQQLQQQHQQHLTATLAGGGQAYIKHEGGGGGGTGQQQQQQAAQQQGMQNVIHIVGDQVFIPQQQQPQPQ
In words: EMSA. To be noted: ~15 nM protein, 3 nM NCP; 12.5 mM HEPES-KOH pH 7.6, 0.05 mM EDTA, 6.25 mM MgCl2, 5% glycerol, 50 mM NaCl, 50 ug/ml BSA, 0.05% NP-40; EMSA at room temperature; smFRET adds dextrose …. For orientation: Mobility shift assays separate free from complexed probe on a gel.

The test system of data set [2] is T2, Cy3-GAF-DBD / GAF-DBD (Drosophila melanogaster), Q08605-2.
T2 sequence: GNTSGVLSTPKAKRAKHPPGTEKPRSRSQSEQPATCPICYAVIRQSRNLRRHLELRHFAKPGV
Kind of data set: EMSA. The conditions noted are these: 3 nM DNA; 12.5 mM HEPES-KOH pH 7.6, 0.05 mM EDTA, 6.25 mM MgCl2, 5% glycerol, 50 mM NaCl, 50 ug/ml BSA, 0.05% NP-40; EMSA at room temperature; smFRET adds dextrose ….

The test system is the same in data set [3]. In words: smFRET. The conditions noted are these: from koff/kon; dwell 3.1 s; 6.25 mM Mg2+; 12.5 mM HEPES-KOH pH 7.6, 0.05 mM EDTA, 6.25 mM MgCl2, 5% glycerol, 50 mM NaCl, 50 ug/ml BSA, 0.05% NP-40; EMSA at room temperature; smFRET adds dextrose ….
The target of data set [4] is SNAP-tagged full-length GAGA factor (MBP–SNAP–GAF–6×His) (Drosophila melanogaster). Kind of data set: mass photometry; Refeyn TwoMP; proteins free in solution; optical tweezers imaging buffer without NP-40; 10-min incubation before measuring; at concentrations similar to those of the optical tweezers experiments (80 nM GAF-FL, 25 nM GAF-ΔPOZ).
The target of a further data set is T3, HA-GAF-FL (Drosophila melanogaster, UniProt Q08605-2 1-519).
T3 sequence: T1 sequence
Kind of data set: EMSA; 3 nM DNA; 12.5 mM HEPES-KOH pH 7.6, 0.05 mM EDTA, 6.25 mM MgCl2, 5% glycerol, 50 mM NaCl, 50 ug/ml BSA, 0.05% NP-40; EMSA at room temperature; smFRET adds dextrose, Trolox, glucose oxidase, catalase. The conditions noted are these: protein: recombinant; tags: N-terminal HA; chain copies: 6; label: Cy5 at end.

Molecule “GTGTCATTTGTTTGGCAGAAAGAAAACTCGAGAAATTTCTCTGGCCGTTATTCTCTATTCGTTTTGTGACTCTCCCTCTCTGTACTATTGCTCTCTCACTCTGTCGCACAGTAAACGGCACACTGTTCTCGTTGCTTCGAGAGAGCGCGCCTCGAA (double strand) [hsp70 NCP (3-N-6 nucleosome)]” displayed a binding signal (fold less bound than free DNA) in data set [1] of 2. Take “GTGTCATTTGTTTGGCAGAAAGAAAACTCGAGAAATTTCTCTGGCCGTTATTCTCTATTCGTTTTGTGACTCTCCCTCTCTGTACTATTGCTCTCTCACTCTGTCGCACAGTAAACGGCACACTGTTCTCGTTGCTTCGAGAGAGCGCGCCTCGAA (double strand) [hsp70 NCP DNA (free, 3-N-6)]”: in data set [2], the K half is 12 nM. “GTTTTGTGAGTACGCGCTGTTGTACTATTGTTAACCCACAAGGTCGCACAGTAAACGGCACACTGTACGTGTTGCTTCGAGAGAGCGCGC (double strand) [Cy5-cognate DNA 90 bp]”: in data set [3], the Kd stood at 11.5 nM. For “SNAP-tagged full-length GAGA factor (MBP–SNAP–GAF–6×His) (natural protein)”, in data set [4], the stoichiometry N was 8.

B1: hsp70 NCP DNA (free, 3-N-6) (dsDNA)
DNA 1: GTGTCATTTGTTTGGCAGAAAGAAAACTCGAGAAATTTCTCTGGCCGTTATTCTCTATTCGTTTTGTGACTCTCCCTCTCTGTACTATTGCTCTCTCACTCTGTCGCACAGTAAACGGCACACTGTTCTCGTTGCTTCGAGAGAGCGCGCCTCGAA
DNA 2: TTCGAGGCGCGCTCTCTCGAAGCAACGAGAACAGTGTGCCGTTTACTGTGCGACAGAGTGAGAGAGCAATAGTACAGAGAGGGAGAGTCACAAAACGAATAGAGAATAACGGCCAGAGAAATTTCTCGAGTTTTCTTTCTGCCAAACAAATGACAC
Turning to B1, the binding result with HA-GAF-FL is “binds”.

What is called Kd is a measure of binding affinity in units of concentration. High values mean a looser complex, low ones a tighter complex. For orientation: stoichiometry N means the number of molecules, sites or subunits per partner or assembly.
